According to the supplement of paper PMC10567573:

B1: FAM189A2 (parent)
chain: PRCDLVDLGEGKICFCCEEFQPAK
B2: ESR2 (parent)
chain: KSCQACRLRKCYEVGMVKCGSRRE

Variants of: B1
Assay: protein stability index of a GFP-peptide fusion (GPS, HEK-293T) (PSI 1-6); higher = more stable
Details: c terminus: a fixed tail appended
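Further: lentivirally expressed fusions sorted by FACS into six bins by GFP to DsRed ratio, PSI derived from sequencing read proportions per bin multiplied by bin number.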

Protein stability index of substitutions, site by site:
K12: E 3.6, S 3.38, V 2.35, P 3.25, N 2.7, Y 2.42, T 2.63, L 2.42, C 3.45, H 4.16, A 3.51, Q 3.89, I 2.46, W 2.32, M 2.04, D 3.4, G 2.21, F 2.85, R 1.99
F20: M 3.16, H 4.34, I 3.6, S 3.89, V 3.75, W 2.4, T 3.97, E 4.91, C 3.15, N 3.86, A 3.32, L 2.42, D 4.05, R 4.13, Q 2.59, Y 3.1, P 4, G 3.59, K 3.89
E19: W 2.25, G 2.71, A 2.51, L 2, Y 2.03, D 2.97, R 2.21, P 3.04, C 3.96, K 2.09, V 1.65, T 3.13, H 2.94, F 1.78, S 2.26, Q 3.05, I 1.55, N 3.21
G11: Y 2.52, W 2.69, T 2.64, V 1.05, S 2.8, R 2.55
C14: I 2.39, E 4.24, Y 2.46, D 4.07, L 3.15, Q 3.79, M 2.87, N 4.56, K 3.94, R 3.51, A 3.62, W 2.51, V 3.06, F 2.16, P 3.94, S 3.3, H 3.48, G 3.56, T 3.47
C17: E 4.67, G 3.92, R 3.28, D 4.29, I 2.05, F 2.37, W 2.51, L 2.15, H 3.11, T 4.05, K 3.64, Y 2.66, N 3.96, P 3.27, S 3.5, Q 3.12, A 3.34, M 2.66
C16: P 4.24, H 4.23, V 2.85, N 3.93, A 3.45, W 2.1, G 3.44, R 3.13, T 3.05, M 3.07, E 3.64, Y 2.22, L 2.71, S 3.28, Q 3.89, I 2.09, D 3.88, F 2.66, K 3.76
E18: S 2.55, Y 2.07, V 2.53, C 2.62, M 2.07, H 2.85, W 2.01, G 2.64, R 2.28, T 2.45, K 2.77, F 2.29, I 2.63, D 2.56, N 2.78, Q 2.64, P 2.98, A 3.34, L 1.71
I13: N 3.78, T 3.1, G 3.55, M 4.02, C 3.38, E 3.73, K 3.71, Q 3.27, Y 2.3, L 2.72, A 3.01, P 3.41, H 3.89, R 3.44, D 4.28, F 3.02, V 2.86, S 3.57, W 2.11
F15: T 4.07, K 4.07, Y 2.81, L 3.39, D 4.74, P 3.55, Q 4.13, E 4.19, N 4.66, V 3.43, H 3.77, S 4.47, I 2.38, G 3.79, C 3.86, R 3.33, A 3.94, W 3.04, M 2.8
K24: S 2.72, I 2.48, M 2.32, D 3.18, H 2.52, Q 2.25, W 1.99, A 2.66, F 2.23, C 3.39, R 2.89, L 3.26, P 3.05, Y 2.52, N 3.37, G 3.1, T 3, E 3.81, V 3.06
A23: N 3.15, R 2.24, Q 3.5, W 3.56, I 2.65, K 3.36, V 3.29, F 2.85, M 1.96, C 3.98, S 2.66, E 4.35, H 3.07, P 2.44, L 3.1, G 2.72, T 2.79, Y 2.28, D 3.12
P22: D 4.31, Y 3.06, M 3.07, L 2.74, A 3.31, N 3.28, R 2.51, F 3.12, E 3.49, V 2.69, H 3.13, G 3.86, I 2.75, W 3.08, C 3.51, Q 3.51, T 3.23, K 3.42
Q21: L 2.65, D 3.61, R 2.44, F 2.24, Y 2.33, V 2.66, S 2.65, C 4.17, G 3.07, E 3.87, I 2.68, P 2.86, W 2.48, T 3.55, A 3.44, N 3.14, K 2.79, H 3.1, M 2.24

Variants of: B2
Assay: as above
Details: c terminus: a fixed tail appended

Protein stability index: each site, then its substitutions
S2: D 1.98, A 1.6, C 1.54, I 1.46, F 1.45, G 1.96, Q 1.96, H 2.23, N 1.98, T 1.92, V 1.92, M 1.78, K 2.02, E 1.96, Y 2.94, R 2.43, P 1.86, W 1.91, L 1.56
C3: N 2.71, P 2.92, G 2.97, A 2.66, K 2.59, L 2.57, Y 2.19, I 2.39, V 2.54, E 3.21, F 2.2, T 2.57, W 1.85, S 3.24, Q 2.94, M 2.48, D 2.69, H 2.65
A5: I 2.34, L 2.29, H 2.15, K 2.48, F 1.55, G 1.84, C 2.08, D 2.09, E 2.39
K1: V 2.31, W 1.65, T 2.1, A 2.89, R 2.22, G 2.71, F 2.31, I 2.78, L 1.95, E 1.72, N 1.59, D 1.75, Y 1.45, P 2.35, Q 2.42, M 1.87, H 2.5, S 3.19, C 2.56
Q4: H 1.83, I 1.88, F 1.32, K 1.84, A 1.55, W 1.39, M 2.18, S 2.11, E 2.1, L 2.15, D 1.81, C 1.72, T 2.17, V 2.04, G 1.58, N 1.86, R 2.15, P 1.68, Y 1.9
